Results from US20150080242A1 (UNIVERSITY OF MASSACHUSETTS, published 2015).

Tests used:
[1] = biological target: OmpG-PEG2-biotin (Escherichia coli) (UniProt P76045); experiment: single channel recording of one OmpG-PEG2-biotin pore, 1 nM mAb
[2] = biological target: OmpG-PEG2-biotin (Escherichia coli) (UniProt P76045); experiment: single channel recording of one OmpG-PEG2-biotin pore, from koff and kon
[3] = biological target: OmpG-PEG2-biotin (Escherichia coli) (UniProt P76045); experiment: single channel recording of one OmpG-PEG2-biotin pore in a planar lipid bilayer, dwell times of binding events
[4] = biological target: OmpG-PEG2-biotin (Escherichia coli) (UniProt P76045); experiment: single channel recording of one OmpG-PEG2-biotin pore, inter-event intervals against mAb concentration
[5] = biological target: OmpG-PEG2-biotin (Escherichia coli) (UniProt P76045); experiment: cell-based or functional assay
BSA = biological target: T1, BSA (UniProt P02769 25-607); experiment: single channel recording in planar lipid bilayer
T1 construct: Control protein
T1 sequence (P02769 25-607 limits assumed): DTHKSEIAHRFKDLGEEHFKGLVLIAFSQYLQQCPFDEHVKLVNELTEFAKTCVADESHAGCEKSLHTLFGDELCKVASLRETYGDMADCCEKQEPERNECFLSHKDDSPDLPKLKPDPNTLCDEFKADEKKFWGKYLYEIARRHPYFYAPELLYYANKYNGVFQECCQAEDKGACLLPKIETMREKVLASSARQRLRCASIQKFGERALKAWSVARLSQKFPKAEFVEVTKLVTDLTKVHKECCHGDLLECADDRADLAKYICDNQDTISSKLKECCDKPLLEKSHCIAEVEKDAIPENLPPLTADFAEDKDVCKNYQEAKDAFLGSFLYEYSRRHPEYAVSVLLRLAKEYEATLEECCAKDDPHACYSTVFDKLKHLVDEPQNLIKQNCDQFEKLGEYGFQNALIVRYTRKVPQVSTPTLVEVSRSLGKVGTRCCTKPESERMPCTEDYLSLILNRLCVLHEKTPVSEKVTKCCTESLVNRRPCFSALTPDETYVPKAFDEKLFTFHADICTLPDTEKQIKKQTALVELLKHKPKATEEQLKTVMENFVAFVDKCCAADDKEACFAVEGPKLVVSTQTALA

**Q.** What does the source list for “Mouse anti-biotin monoclonal antibody (MS-1048-P1, Thermo Scientific)”?
**A.** mean inter-event interval at 1 nM mAb [1]: 74.5 s; Kd [2]: 11.2 nM; koff [3]: 0.25 s⁻¹; kon [4]: 2.3e+07 M⁻¹ s⁻¹; Event frequency [5]: 201 s⁻¹; Gating duration [5]: 4.2 s; Inter-event duration [5]: 3.67 s; Open probability [5]: 0.52; Relative conductance of open state (%) [5]: 86.4%; open probability of the mAb bound state at -50 mV [5]: 0.4

B1: OmpG-PEG2-biotin (other)
chain: GEERNDWHFNIGAMYEIENVEGYGEDMDGLAEPSVYFNAANGPWRIALAYYQEGPVDYSAGKRGTWFDRPELEVHYQFLENDDFSFGLTGGFRNYGYHYVDEPGKDTANMQRWKIAPDWDVKLTDDLRFNGWLSMYKFANDLNTTGYADTRVETETGLQYTFNETVALRVNYYLERGFNMDDSRNNGEFSTQEIRAYLPLTLGNHSVTPYTRIGLDRWSNWDWQCDIEREGHDFNRVGLFYGYDFQNGLSVSLEYAFEWQDHDEGDSDKFHYAGVGVNYSF
modifications: maleimide-PEG2-biotin on Cys 224 (D224C, loop 6)
notes: also called OmpG-PEG2-Biotin pore; OmpG-biotin
**Q.** Does B1 bind (BSA)?
**A.** no binding (tested: 1 µM)
